Assay results: patent publication US20090068207A1, “Compositions Containing Beta 2-Glycoprotein I-Derived Peptides for the Prevention and/or Treatment of Vascular Disease” (Vascular Biogenics Ltd., priority 2005, published 2009)

Legend:
[1] = tested on: lymph node cells; experiment: Lymph node cell proliferation (stimulation index) to oxLDL after oral administration; assay type: in vivo, mice; conditions: oral, 3 doses of 100 μg; LDL-RD mice immunized with OxLDL; OxLDL challenge; mean ± S.E.
Method: Proliferation was measured by the incorporation of [^3H] thymidine into DNA during the final 12 h of incubation. The results were computed as stimulation index: the ratio of the mean cpm of the antigen to the mean background cpm obtained in the absence of the antigen.
[…] Three days after the final administration of peptides, the mice were immunized with OxLDL in incomplete Freund's adjuvant, as described in the Examples above, and lymph node cells assessed for antigen (OxLDL) stimulation of proliferation 10 days later. Proliferation was assessed by incorporation of thymidine, expressed as the Stimulation Index, as described.

[2] = tested on: LDL-RD mice; experiment: Aortic sinus lesion area after nasal tolerance induction, Western diet; assay type: in vivo; conditions: END, intranasal 10 μg/mouse every other day for 5 days, then Western diet, mean ± S.E
Method: Nasal Tolerance: Nasal tolerance was induced by intranasal administration of oxidized LDL, β2GPI, β2GPI-derived peptides or HSP65, in a total volume of 10 μl PBS. Intranasal administration was performed on mildly sedated mice (12-16 weeks old), each mouse receiving 3 doses of antigen per dose, in the indicated concentrations, every other day. Atherogenesis was induced by 5 weeks of a Western diet initiated on the day following the last intranasal administration, or assessed (in Apo E KO mice) after 8 weeks on a chow diet. Controls received equal amounts of BSA and/or PBS, as indicated, in an identical regimen. Plasma was obtained for assessment of cholesterol and triglyceride levels from all mice, and the mice were sacrificed for evaluation of atherosclerosis, as described hereinbelow, after 5 weeks Western diet, or (in Apo E KO mice) after 8 weeks on a chow diet.
Assessment of Atherosclerosis: Quantification of atherosclerotic fatty streak lesions was done by calculating the lesion size in the aortic sinus as previously described (16) and by calculating the lesion size in the aorta. Briefly, after perfusion with saline Tris EDTA, the heart and the aorta were removed from the animals and the peripheral fat cleaned carefully. The upper section of the heart was embedded in OCT medium (10.24% w/w polyvinyl alcohol; 4.26% w/w polyethylene glycol; 85.50% w/w nonreactive ingredients) and frozen. Every other section (10 μm thick) throughout the aortic sinus (400 μm) was taken for analysis. The distal portion of the aortic sinus was recognized by the three valve cusps that are the junctions of the aorta to the heart. Sections were evaluated for fatty streak lesions after processing and staining with oil-red O, according to Paigen et al (Atherosclerosis, 1987; 68:231-40). Lesion areas per section were scored on a grid (17) by an observer counting unidentified, numbered specimens. The aorta was dissected from the heart and surrounding adventitious tissue was removed. Fixation of the aorta and Sudan staining of the vessels were performed as previously described (21).
Mice were bled prior to feeding (Time 0) and at the conclusion of the experiment (End) for determination of lipid profile. Atherosclerosis was assessed in heart and aorta as described above, 8 weeks after the last feeding. Mice were weighed every 2 weeks during the experiment. All mice were fed water ad libitum and a normal chow-diet containing 4.5% fat by weight (0.02% cholesterol), up to the final antigen exposure, and then a “Western” diet until sacrifice.
Thus, nasal exposure to a low dose and an exceedingly low dose of recombinant human HSP 65 were compared for their effectiveness in suppressing atherogenesis in LDL-RD mice. 58 male 12-16 week old LDL-RD mice were divided into 4 groups.

[3] = tested on: LDL-RD mice; experiment: Aortic sinus lesion area after oral administration, Western diet; assay type: in vivo; conditions: for Aortic sinus lesion (μm^2): End, mean ± S.E
Method: Oral Tolerance: For comparison, oral tolerance to plaque-associated molecules was induced by feeding […] of antigen every other day (for a detailed account of induction of oral tolerance, see U.S. patent application Ser. No. 09/806,400 to Shoenfeld et al filed Sep. 30, 1999), in a similar regimen to the nasal tolerance. LDL-RD mice were fed by a nasogastric tube, five doses (every other day) of human or bovine β2GPI in PBS in two different concentrations (500 and 50 μg/dose).
Oral tolerance to β2GPI-derived peptides, alone or in combination was induced by feeding 100 μg of the peptides (prepared in PBS, 0.2 ml), as detailed hereinabove, every other day for a total of 5 doses of 100 μg. One day following the last feeding, all mice were switched from chow-diet to an atherogenic “Western” diet and sacrificed five weeks later.
Assessment of Atherosclerosis: Quantification of atherosclerotic fatty streak lesions was done by calculating the lesion size in the aortic sinus as previously described (16) and by calculating the lesion size in the aorta. Briefly, after perfusion with saline Tris EDTA, the heart and the aorta were removed from the animals and the peripheral fat cleaned carefully. The upper section of the heart was embedded in OCT medium (10.24% w/w polyvinyl alcohol; 4.26% w/w polyethylene glycol; 85.50% w/w nonreactive ingredients) and frozen. Every other section (10 μm thick) throughout the aortic sinus (400 μm) was taken for analysis. The distal portion of the aortic sinus was recognized by the three valve cusps that are the junctions of the aorta to the heart. […] Lesion areas per section were scored on a grid (17) by an observer counting unidentified, numbered specimens. The aorta was dissected from the heart and surrounding adventitious tissue was removed. Fixation of the aorta and Sudan staining of the vessels were performed as previously described (21).
LDL-receptor deficient (LDL-RD; LDLR −/−) mice created on a C57BL/6 background develop accelerated atherosclerosis when fed a high cholesterol diet, but not when fed a regular chow diet. In order to determine whether mucosal administration of the plaque antigen β2GPI could suppress atherogenic processes, LDL-RD mice were fed low, oral tolerance inducing doses of human and bovine β2GPI, and the assessed for alterations in response to diet.

B1: Human β2 GPI: human beta2-glycoprotein I (SEQ ID NO: 10) purified from serum (protein)
chain: MISPVLILFSSFLCHVAIAGRTCPKPDDLPFSTVVPLKTFYEPGEEITYSCKPGYVSRGGMRKFICPLTGLWPINTLKCTPRVCPFAGILENGAVRYTTFEYPNTISFSCNTGFYLNGADSAKCTEEGKWSPELPVCAPIICPPPSIPTFATLRVYKPSAGNNSLYRDTAVFECLPQHAMFGNDTITCTTHGNWTKLPECREVKCPFPSRPDNGFVNYPAKPTLYYKDKATFGCHDGYSLDGPEEIECTKLGNWSAMPSCKASCKLPVKKATVVYQGERVKIQEKFKNGMLHGDKVSFFCKNKEKKCSYTEDAQCIDGTIEVPKCFKEHSSLAFWKTDASDVKPC
- Stimulation index [1]: 38 ± 12
- Aortic sinus lesion (μm^2) [2]: 46250 ± 4486 μm^2
- Aortic sinus lesion (μm^2) ([3]; oral 50 μg): 26563 ± 2370 μm^2
- Aortic sinus lesion (μm^2) ([3]; oral 100 μg): 30250 ± 4464 μm^2
- Aortic sinus lesion (μm^2) ([3]; oral 500 μg): 27031 ± 3387 μm^2
- reduction of atherosclerosis as compared with BSA-fed controls ([3]; oral 50 μg/dose): 45%
- reduction of atherosclerosis (aortic sinus lesion size) as compared with BSA- and PBS-fed controls ([3]; oral 100 μg/dose, 5 doses, Western diet 5 weeks): 44%
- reduction of atherosclerosis as compared with BSA-fed controls ([3]; oral 500 μg/dose): 44%
